{"source": "paper PMC2478715", "origin": "cited, not measured here", "test_system": "HMGB1 (purified from mammalian source) (rat (liver nuclei), human (HeLa) or monkey (CV1); preparation per gel not specified)", "experiment": "cited value; method not stated here", "settings": "50 mM NaCl, 25 mM Tris-HCl pH 7.5, 1 mM DTT, 1 mM EDTA, 0.1% Triton X-100, 100 ug/mL BSA, 2% glycerol, 25 uL, 20 min at 37 C; 4% PAGE in 0.5x TBE at room …", "note": "pKd: −log10 of the molar value.", "data": [{"substance": "hcDNA (hemicatenated DNA loop, 120 bp fragment)", "values": [{"measurement": "pKd", "result": "> 12.82"}]}]}
